± gives the uncertainty stated by the source.

The nature of this data set: amyloid nucleation score (Sup35N fusion, yeast selection) (log enrichment); library NNK2; higher = more nucleation; inactive = no reads after selection. The method in brief:
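After 24 hours of induction with 100 μM copper sulfate, psi-negative yeast expressing peptides of 20 random codons fused to Sup35N were grown for 7 days at 30°C on medium lacking adenine and uracil. Input and output plasmid inserts were sequenced with Illumina, and sequences with under 100 input reads were discarded. Scores for nucleation are the DiMSum log enrichment of output over input reads, centred on the mode score of non-aggregating sequences.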
On to LINEFNAKNQSVRIFPVSEK, for which the amyloid nucleation score is -0.645 ± 0.64.
For the substance RGLLHFIFVITQYKGIYSNV, the amyloid nucleation score entry is “inactive”.
In turn, EFFALMDARVFVSVMLQEVD registered an amyloid nucleation score of -0.268 ± 0.63.
In turn, VSMGNGARH gave an amyloid nucleation score of 0.194 ± 0.2.
Next, NYCRVDLHSYKCYVVCSMFM: 4.76 ± 0.11; SYFHRWRATNFRTHKEAC: -1.02 ± 0.34.
As for FNYDIPPVVQGCHISAQLLP, the amyloid nucleation score was -0.271 ± 0.74.
Substance LNYTRCQGSTKVDHSLGNLM showed an amyloid nucleation score of -0.482 ± 0.31.
In turn, ANGLVPYVTFLVLYALHTGT returned an amyloid nucleation score of 1.41 ± 0.38.
Regarding CFSRMRRTEW, the amyloid nucleation score is -0.142 ± 0.23.
In turn, RYMGVMVYKAPPRRTWCGKV registered an amyloid nucleation score of -0.237 ± 0.41.
Substance GVPALGFGLAGLTVACFAEE showed an amyloid nucleation score of -0.097 ± 0.34.
In the case of AEEQLLWFCYFRELKILNIF, the amyloid nucleation score result is “inactive”.
For the substance VVLGLDNPIHLIFLKDVNYC, the amyloid nucleation score was -1.5 ± 1.1.
For SMSSNVRTYNQFTHL, the amyloid nucleation score turned out to be 0.716 ± 0.53.
For HRLVLDIGDQIWSKA the value was 0.35 ± 0.56; for GILWRGVLVRYVCPVVSTSI, “inactive”; for HGGQRMCAGCV, 0.865 ± 0.31.
For FIAFVYNL, the amyloid nucleation score was 1.95 ± 0.091.
Consider NMPFYRFAKRTWFRNPQSFV, for which the amyloid nucleation score was -1.19 ± 1.
The substance WGNVLNLYNR displayed an amyloid nucleation score of 4.53 ± 0.081.
Take DFISCVLFSLFFRTLSRKGH: the amyloid nucleation score was -0.679 ± 0.64.
For IVGATYHLSWLPGYTGIYRG the value was 1.25 ± 0.47; for VHRTEVRLLSQGTRYVSCNS, 2.06 ± 0.3.
For SLRNDGFNLDPVLHALFVEL the value was -0.306 ± 0.63.
SFAYVMCLSG yielded an amyloid nucleation score of -0.635 ± 0.55.
Next, ERSVDYSLTL: -0.43 ± 0.45.
As to HYVSNEHSVRRTHHRKTKLT, the amyloid nucleation score was found to be 0.753 ± 0.67.
For FNRVLVPRIKNTWILYCYFI the value was “inactive”; for YMLMREASGLLRPGAEMWFN, -0.177 ± 0.45.
As to PTGNQLKKCVDKCGGRSGGE, the amyloid nucleation score result was “inactive”.
With YFSYVMSVAATAMLGLVVVR, the amyloid nucleation score was 0.189 ± 0.3.
For LHIGKFNVNLFN, the amyloid nucleation score was found to be 4.32 ± 0.045.
Next, PPDNVSNWYVVKWAGRMMQK: 4.13 ± 0.044.
Substance ILVSMDRLCLWAGTSASGFS had an amyloid nucleation score of 0.278 ± 0.55.
For YPNTLFHWEAS the value was 0.359 ± 0.29; for MSSMCNLFRYMFKLYVRSWV, -0.681 ± 0.3.
Next, ICSDFGPNSGYRHQWVCIGV: -0.023 ± 0.45; LICLSMSQCMDCNLGNSWWV: “inactive”; LMGKGMSTLGDDGVFSRG: -0.378 ± 0.49.
On to YELHRNAIPRRRSQDSL, for which the amyloid nucleation score is -0.81 ± 0.39.
SVLAGDLNLRLVFYCMFMYH displayed an amyloid nucleation score of 1.61 ± 0.31.
Regarding RGFRGRFVFGRT, the amyloid nucleation score is -0.183 ± 0.49.
In turn, CGYVEV displayed an amyloid nucleation score of 0.244 ± 0.65.
NSIESNSCKWVRNVCTANSG registered an amyloid nucleation score of -0.587 ± 0.76.
Next, FSITCADFICYSLVGGERTP: 9.559 ± 0.066; NYFVNSI: “inactive”.
Substance GFYYRRSMESGNTFSGCSTA came in with an amyloid nucleation score of -0.776 ± 0.62.
The substance NGIRQDNMGGVHVPTGSTII showed an amyloid nucleation score of -0.277 ± 0.39.
DSSRRM: the amyloid nucleation score was -1.43 ± 0.78.
As to LKWDASKAWILRCQCFRELW, the amyloid nucleation score is -0.678 ± 0.76.
The substance IFAAGYMYIFILVYLLTARG registered an amyloid nucleation score of -0.01 ± 1.
For VRKRNVFFSSSFSSQRSGNC, the amyloid nucleation score is -0.327 ± 0.63.
Turning to GCVLSVSWWVGSSLVNWGYY, the amyloid nucleation score is 5.356 ± 0.052.
For YMVGVSITMCCRATLNFSSM the value was 5.21 ± 0.06.
VCASYMQFIDHCSKKEVWLN showed an amyloid nucleation score of -1.1 ± 0.44.
For SLMETGYTPSRERMMHHM, the amyloid nucleation score was -0.095 ± 0.33.
For TRPLFTFRAMVDTRIHVFPM the value was 0.201 ± 0.8.
RRFPRHLASGRMPV returned an amyloid nucleation score of 1.41 ± 0.32.
For the substance WLIKPVAPLSVYWSVWWSVV, the amyloid nucleation score is 0.3 ± 0.55.
For LGSNEPL, the amyloid nucleation score is -0.337 ± 0.63.
YKRLEMLRMSCTIWTITPPR returned an amyloid nucleation score of 0.234 ± 0.32.
In turn, VCRVFIKLYI gave an amyloid nucleation score of 1.03 ± 0.21.
GAHNMREGAAPGRKRVVLAM displayed an amyloid nucleation score of 1.22 ± 0.35.
As for YCVLMNS, the amyloid nucleation score was -0.173 ± 0.41.
Next, AVRVGGTGFRVRS: -0.121 ± 0.48; KAVSLPLVGGLC: -0.684 ± 0.34; LTCSKSPIWWAIIFVGYFTN: 0.022 ± 0.62.
Consider TFFIMEIFDFC, for which the amyloid nucleation score is 1.8 ± 0.15.
For TGHKECVW the value was 0.762 ± 0.47; for YVTFMKGIGLSVFSADIQ, 1.83 ± 0.2; for YTLFNDASRLFD, “inactive”.
For CFRKLQYISFYYTTWVILDA the value was “inactive”.
For NMPHPHEFIRSPCICLRHVV, the amyloid nucleation score entry is “inactive”.
Take SSSFLL: the amyloid nucleation score is -0.545 ± 0.76.
On to ADATGVECPIYDRRRVNRTN, for which the amyloid nucleation score is -0.235 ± 0.8.
VGRVHSLSDYCDFGKSWFKY registered an amyloid nucleation score of -0.864 ± 0.74.
Next, WFVGCHTVRR: 0.84 ± 0.33; HMGLLFKWAYTYRIAWGKLR: -0.451 ± 0.79; YTSGMFFMPMQALASETPHA: -0.924 ± 0.61.
IQGPIVEFTISIRSSSRRHW came in with an amyloid nucleation score of 3.1 ± 0.083.
Consider VERVPGCTRTRTFWLNSSDW, for which the amyloid nucleation score stood at 0.591 ± 0.25.
In turn, NLNIFGLAMLCNRRGAYMRK gave an amyloid nucleation score of 6.829 ± 0.039.
With FFVSGLFANF, the amyloid nucleation score stood at 1.73 ± 0.2.
As for PDIYLYFLKKVMRS, the amyloid nucleation score is -1.57 ± 1.1.
Take TMKHLFRDGRSIRLLTCWVS: the amyloid nucleation score is -0.931 ± 0.42.
As for RVNPCMTEGSLGLICSPYWY, the amyloid nucleation score is -0.511 ± 0.22.
Regarding CRSNQNESLNGC, the amyloid nucleation score came out at 0.436 ± 0.21.
Consider CVWGWNRSYTYYYGDAIGHC, for which the amyloid nucleation score entry is “inactive”.
As for YLRLHYAFSGVNNKGIESGC, the amyloid nucleation score result was “inactive”.
As for LLCRTCFRVQYAYDNLVMFL, the amyloid nucleation score entry was “inactive”.
On to DRRWHRALQN, for which the amyloid nucleation score came to 0.137 ± 0.37.
Next, SIIVLRLLY: 0.523 ± 0.51.
For WYFWGLHMIGVSTAISNPLR the value was -0.683 ± 1.1; for VSGRDHTNNTGLYAWLHFCY, -0.493 ± 0.63.
For LVGVPNYVRMHYARLSLTAL the value was “inactive”; for FKHLLSMVIVECFIVIVILC, -0.041 ± 0.5.
Turning to GIIISRSNKLFFVKCCNN, the amyloid nucleation score is 1.7 ± 0.079.
As for RAYFTSKMCIRQTWTEKILY, the amyloid nucleation score came out at 5.13 ± 0.052.
For VLYYTPRLSVERMGFHNMIY, the amyloid nucleation score was -0.46 ± 1.
Take ENSFLVRKTSH: the amyloid nucleation score is -0.262 ± 0.36.
Substance NRLWHPQCLWAFLNIRNPQL yielded an amyloid nucleation score of 0.286 ± 0.48.
For the substance SESWSSCIMA, the amyloid nucleation score worked out at 1.33 ± 0.39.
As for NLCSKRRNL, the amyloid nucleation score was -0.927 ± 0.78.
The substance VGVVVNFRASGPGFE registered an amyloid nucleation score of 8.288 ± 0.061.
For HMTSS the value was -0.495 ± 0.33; for MEKVHV, 1.65 ± 0.48.
Next, CYVVAREKSLIETGNFGKYG: -0.653 ± 0.79; MHSFHTICLLLMWRESRIAV: 0.45 ± 0.39; NLHFCVQKSGESASRVVHHA: 0.958 ± 0.46.
Turning to MLGHSWHF, the amyloid nucleation score result was “inactive”.
For the substance GSTVKSIVCDSVWS, the amyloid nucleation score was 0.082 ± 0.65.
For KIVCDPGCIFMPFLCVCLLW the value was 6.07 ± 0.082; for ENCLESWTCI, -1.08 ± 0.78.
Substance NSPNCDHASRKLIHR returned an amyloid nucleation score of 0.07 ± 0.61.
In turn, QAPLWENSVSVPRLWWNSLS yielded an amyloid nucleation score of -0.342 ± 1.1.
In the case of TLHWSMR, the amyloid nucleation score came to 8.355 ± 0.034.
CYYVDIVVSHQRTTSVMVGD had an amyloid nucleation score of 0.698 ± 0.29.
EFSSTTSALGKDVRVFNFAI registered an amyloid nucleation score of -1.26 ± 0.62.
For the substance CFEMV, the amyloid nucleation score was -0.886 ± 0.21.
GMWFLRLSSFTCI came in with an amyloid nucleation score of 5.722 ± 0.049.
Take LVLAGSYDRCLPSCVVMRKG: the amyloid nucleation score was found to be 0.461 ± 0.64.
For FSCMISIKRFFRVAKNASGY the value was 4.84 ± 0.084.
Turning to MFWRSYNWDFSCYCNCSRGR, the amyloid nucleation score was determined as 5.054 ± 0.033.
Substance FASRLNWVEIHTMYGGLS returned an amyloid nucleation score of 0.209 ± 0.32.
For YFYRRVCGINAGPQPCLEYV the value was -1.27 ± 0.54.
On to MSLIKTHGKLTVGDVDFPKF, for which the amyloid nucleation score is -0.753 ± 0.44.
For RIMTPWIGRGRRAHIFLHLW, the amyloid nucleation score came out at 1.06 ± 0.29.
The substance PFSYFRWWPYRILAWSTWLV had an amyloid nucleation score of 4.89 ± 0.061.
Substance GISRGLILEVTC had an amyloid nucleation score of 1.12 ± 0.43.
In the case of KFLIWRNFLYSVIMAVAW, the amyloid nucleation score result is “inactive”.
The substance YLFFYNMSRDRSDTWCEHAV gave an amyloid nucleation score of 3.5 ± 0.094.
In turn, AFTLQIHGFSVIVTASLQVS showed an amyloid nucleation score of -0.642 ± 1.1.
Next, KESLAFTSVGVPYVWGLYGE: 0.035 ± 0.32; IVGDVHSLMILRVKSAFKFT: 2.81 ± 0.16; GRSSAWFNEGRLW: 0.383 ± 0.39.
In turn, CNLSFVGS displayed an amyloid nucleation score of 0.287 ± 0.25.
Consider TSSTLGLYSHDMPTATHLME, for which the amyloid nucleation score is -0.176 ± 0.41.
As for KRILS, the amyloid nucleation score is -0.13 ± 0.34.
With YTIIKWPL, the amyloid nucleation score is -0.21 ± 0.79.
